Source: publication PMC10130750, “The motor domain of the kinesin Kip2 promotes microtubule polymerization at microtubule tips” (The Journal of Cell Biology, 2023)
Blank lines part the entries; values can stand above or below the binder they belong to.

B4: coiled-coil domain of Bik1 (Bik1-CC, residues 182–396) (domain or fragment, S. cerevisiae, UniProt P11709 182-396, looked up)
chain: DNGHMNDLNSSEVTIELREAQLTIEKLQRKQLHYKRLLDDQRMVLEEVQPTFDRYEATIQEREKEIDHLKQQLELERRQQAKQKQFFDAENEQLLAVVSQLHEEIKENEERNLSHNQPTGANEDVELLKKQLEQLRNIEDQFELHKTKWAKEREQLKMHNDSLSKEYQNLSKELFLTKPQDSSSEEVASLTKKLEEANEKIKQLEQAQAQTAVES
notes: Bik1 coiled-coil domain, S. cerevisiae CLIP-170 ortholog, residues 182–396; Dimer by SEC-MALS (51 kD); source: recombinantly expressed and purified (E. coli BL21 (DE3), IMAC, SEC)

Assays:
[1] = target: tubulin (free αβ-tubulin heterodimer) (not stated (bovine brain tubulin used for pelleting, pig brain tubulin for TIRF)) (UniProt Q6B856)
Sequence of tubulin (free αβ-tubulin heterodimer) (not stated (bovine brain tubulin used for pelleting, pig brain tubulin for TIRF)) (Q6B856 whole entry, looked up, one chain of several): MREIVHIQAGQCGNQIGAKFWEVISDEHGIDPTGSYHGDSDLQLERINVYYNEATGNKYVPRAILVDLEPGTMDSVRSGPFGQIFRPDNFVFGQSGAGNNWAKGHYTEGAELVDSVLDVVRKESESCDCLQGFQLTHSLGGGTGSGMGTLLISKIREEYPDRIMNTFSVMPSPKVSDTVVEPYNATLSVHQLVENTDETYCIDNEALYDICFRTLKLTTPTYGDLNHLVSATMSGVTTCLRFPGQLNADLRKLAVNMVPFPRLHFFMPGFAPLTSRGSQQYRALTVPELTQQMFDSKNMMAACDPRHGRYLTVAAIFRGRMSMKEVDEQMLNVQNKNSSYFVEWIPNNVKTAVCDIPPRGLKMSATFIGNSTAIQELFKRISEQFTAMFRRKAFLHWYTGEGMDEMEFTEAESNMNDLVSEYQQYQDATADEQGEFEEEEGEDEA

[2] = target: the molecule itself; test: SEC-MALS; 25°C; 20 mM Tris-HCl pH 7.5, 150 mM NaCl, 1 mM DTT; 4–8 mg/ml of each protein applied, single proteins and mixtures (Bik1-CC, Kip2-NMD, Kip2-NMD-ΔT)
[3] = target: B4; test: as above; conditions: both partners purified
[4] = target: the molecule itself; test: SEC-MALS; 25°C; 20 mM Hepes pH 7.4, 200 mM NaCl, 1 mM DTT; 4–8 mg/ml applied; MBP-Kip2(71-560)-mCherry or its P1^− mutant alone and mixed with tubulin
[5] = target: T1, tubulin (free αβ-tubulin heterodimer) ( (bovine brain tubulin used …, UniProt Q6B856 1-445)); test: as above; conditions: both partners purified
[6] = target: T1, tubulin (free αβ-tubulin heterodimer); test: SEC-MALS; equimolar mixture of tubulin and Kip2-MD in its apo state; 25°C; conditions: both partners purified

average speed of microtubule growth in dynamic microtubule assay (porcine tubulin), 2 nM Kip2-WT, fold increase over no addition [1]: > 13 fold | frequency of catastrophe in dynamic microtubule assay (porcine tubulin), 2 nM Kip2-WT, fold reduction against no addition [1]: 19 fold | length of freshly polymerized microtubules in dynamic microtubule assay (7 µM porcine tubulin, ATP), 2 nM Kip2-WT, fold over no addition [1]: 5 fold
B1: MBP-Kip2(1-560)-RFP (domain or fragment)
chain: MIQKMSPSLRRPSTRSSSGSSNIPQSPSVRSTSSFSNLTRNSIRSTSNSGSQSISASSTRSNSPLRSVSAKSDPFLHPGRIRIRRSDSINNNSRKNDTYTGSITVTIRPKPRSVGTSRDHVGLKSPRYSQPRSNSHHGSNTFVRDPWFITNDKTIVHEEIGEFKFDHVFASHCTNLEVYERTSKPMIDKLLMGFNATIFAYGMTGSGKTFTMSGNEQELGLIPLSVSYLFTNIMEQSMNGDKKFDVIISYLEIYNERIYDLLESGLEESGSRISTPSRLYMSKSNSNGLGVELKIRDDSQYGVKVIGLTERRCESSEELLRWIAVGDKSRKIGETDYNARSSRSHAIVLIRLTSTNVKNGTSRSSTLSLCDLAGSERATGQQERRKEGSFINKSLLALGTVISKLSADKMNSVGSNIPSPSASGSSSSSGNATNNGTSPSNHIPYRDSKLTRLLQPALSGDSIVTTICTVDTRNDAAAETMNTLRFASRAKNVALHVSKKSIISNGNNDGDKDRTIELLRRQLEEQRRMISELKNRSNIGEPLTKSSNESTYKDIKATGN

average growth speed of microtubules in dynamic microtubule assay (porcine tubulin), 2, 4 and 8 nM Kip2-P1^− (no speed-up at 2 nM), fold over no addition [1]: 2.9 fold | effect on catastrophe frequency in dynamic microtubule assay (porcine tubulin), 2 nM Kip2-P1^−, against the wild-type protein [1]: 10 fold
B2: MBP-Kip2(1-560)-P1^−-RFP (domain or fragment)
chain: MIQKMSPSLRRPSTRSSSGSSNIPQSPSVRSTSSFSNLTRNSIRSTSNSGSQSISASSTRSNSPLRSVSAKSDPFLHPGRIRIRRSDSINNNSRKNDTYTGSITVTIRPKPRSVGTSRDHVGLKSPRYSQPRSNSHHGSNTFVRDPWFITNDKTIVHEEIGEFKFDHVFASHCTNLEVYERTSKPMIDKLLMGFNATIFAYGMTGSGKTFTMSGNEQELGLIPLSVSYLFTNIMEQSMNGDKKFDVIISYLEIYNERIYDLLESGLEESGSRISTPSRLYMSKSNSNGLGVELAIADDSQYGVKVIGLTERRCESSEELLRWIAVGDKSRKIGETDYNARSSRSHAIVLIRLTSTNVKNGTSRSSTLSLCDLAGSERATGQQERRKEGSFINKSLLALGTVISKLSADKMNSVGSNIPSPSASGSSSSSGNATNNGTSPSNHIPYRDSKLTRLLQPALSGDSIVTTICTVDTRNDAAAETMNTLRFASRAKNVALHVSKKSIISNGNNDGDKDRTIELLRRQLEEQRRMISELKNRSNIGEPLTKSSNESTYKDIKATGN

stoichiometry N [3]: 1 Kip2-NMD dimer per Bik1-CC dimer
B3: Kip2 non-motor domain (Kip2-NMD, residues 504–706) (domain or fragment, S. cerevisiae, UniProt P28743 504-706, looked up)
chain: SNGNNDGDKDRTIELLRRQLEEQRRMISELKNRSNIGEPLTKSSNESTYKDIKATGNDGDPNLALMRAENRVLKYKLENCEKLLDKDVVDLQDSEIMEIVEMLPFEVGTLLETKFQGLESQIRQYRKYTQKLEDKIMALEKSGHTAMSLTGCDGTEVIELQKMLERKDKMIEALQSAKRLRDRALKPLINTQQSPHPVVDNDK
notes: Kip2 non-motor domain (coiled coil and C-terminal tail), S. cerevisiae, residues 504–706; Dimer by SEC-MALS (45 kD); PreScission site between His tag and protein; also called NMD-Kip2; source: E. coli BL21 (DE3), purified (IMAC, SEC); not shown: His6, N-terminal, cleaved
stoichiometry N [2]: 2

Binder: B4
stoichiometry N [2]: 2

B5: Kip2-NMD-ΔT (truncated non-motor domain of Kip2, residues 504–645) (domain or fragment, S. cerevisiae, UniProt P28743 504-645, looked up)
chain: SNGNNDGDKDRTIELLRRQLEEQRRMISELKNRSNIGEPLTKSSNESTYKDIKATGNDGDPNLALMRAENRVLKYKLENCEKLLDKDVVDLQDSEIMEIVEMLPFEVGTLLETKFQGLESQIRQYRKYTQKLEDKIMALEKS
notes: Kip2 non-motor domain lacking the C-terminal tail, S. cerevisiae, residues 504–645; Dimer by SEC-MALS (34 kD); also called Kip2-NMD-∆T; source: E. coli BL21 (DE3), purified (IMAC, SEC); not shown: His6, N-terminal, cleaved
stoichiometry N [2]: 2

stoichiometry N [5]: 1 MBP-Kip2-MD-mCherry dimer per tubulin dimer
B6: MBP-Kip2(71-560)-mCherry (domain or fragment, S. cerevisiae, UniProt P28743 71-560, looked up)
chain: KSDPFLHPGRIRIRRSDSINNNSRKNDTYTGSITVTIRPKPRSVGTSRDHVGLKSPRYSQPRSNSHHGSNTFVRDPWFITNDKTIVHEEIGEFKFDHVFASHCTNLEVYERTSKPMIDKLLMGFNATIFAYGMTGSGKTFTMSGNEQELGLIPLSVSYLFTNIMEQSMNGDKKFDVIISYLEIYNERIYDLLESGLEESGSRISTPSRLYMSKSNSNGLGVELKIRDDSQYGVKVIGLTERRCESSEELLRWIAVGDKSRKIGETDYNARSSRSHAIVLIRLTSTNVKNGTSRSSTLSLCDLAGSERATGQQERRKEGSFINKSLLALGTVISKLSADKMNSVGSNIPSPSASGSSSSSGNATNNGTSPSNHIPYRDSKLTRLLQPALSGDSIVTTICTVDTRNDAAAETMNTLRFASRAKNVALHVSKKSIISNGNNDGDKDRTIELLRRQLEEQRRMISELKNRSNIGEPLTKSSNESTYKDIKATGN
notes: Kip2 motor domain with a first helix predicted to form part of the coiled coil, S. cerevisiae, residues 71–560; Mixed monomers and dimers by SEC-MALS (185 kD; monomer calculated 125.8 kD); also called MBP-Kip2-MD-mCherry; MBP-Kip2-MD; not shown: MBP, N-terminal, kept; mCherry, C-terminal, kept
stoichiometry N [4]: 2

B7: MBP-Kip2(71-560)-P1^−-mCherry (domain or fragment, S. cerevisiae, UniProt P28743 71-560, looked up)
chain: KSDPFLHPGRIRIRRSDSINNNSRKNDTYTGSITVTIRPKPRSVGTSRDHVGLKSPRYSQPRSNSHHGSNTFVRDPWFITNDKTIVHEEIGEFKFDHVFASHCTNLEVYERTSKPMIDKLLMGFNATIFAYGMTGSGKTFTMSGNEQELGLIPLSVSYLFTNIMEQSMNGDKKFDVIISYLEIYNERIYDLLESGLEESGSRISTPSRLYMSKSNSNGLGVELAIADDSQYGVKVIGLTERRCESSEELLRWIAVGDKSRKIGETDYNARSSRSHAIVLIRLTSTNVKNGTSRSSTLSLCDLAGSERATGQQERRKEGSFINKSLLALGTVISKLSADKMNSVGSNIPSPSASGSSSSSGNATNNGTSPSNHIPYRDSKLTRLLQPALSGDSIVTTICTVDTRNDAAAETMNTLRFASRAKNVALHVSKKSIISNGNNDGDKDRTIELLRRQLEEQRRMISELKNRSNIGEPLTKSSNESTYKDIKATGN
notes: Kip2 motor domain with a first helix of the coiled coil, S. cerevisiae, residues 71–560, patch 1 (Lys294, Arg296) substituted with alanines; Mixed monomers and dimers by SEC-MALS (192 kD); also called MBP-Kip2-MD-P1^−-mCherry; MBP-Kip2-MD-P1; not shown: MBP, N-terminal, kept; mCherry, C-terminal, kept
stoichiometry N [4]: 2

stoichiometry N [6]: 1
B8: Kip2 motor domain (Kip2-MD, residues 100–503) (domain or fragment, S. cerevisiae, UniProt P28743 100-503, looked up)
chain: TGSITVTIRPKPRSVGTSRDHVGLKSPRYSQPRSNSHHGSNTFVRDPWFITNDKTIVHEEIGEFKFDHVFASHCTNLEVYERTSKPMIDKLLMGFNATIFAYGMTGSGKTFTMSGNEQELGLIPLSVSYLFTNIMEQSMNGDKKFDVIISYLEIYNERIYDLLESGLEESGSRISTPSRLYMSKSNSNGLGVELKIRDDSQYGVKVIGLTERRCESSEELLRWIAVGDKSRKIGETDYNARSSRSHAIVLIRLTSTNVKNGTSRSSTLSLCDLAGSERATGQQERRKEGSFINKSLLALGTVISKLSADKMNSVGSNIPSPSASGSSSSSGNATNNGTSPSNHIPYRDSKLTRLLQPALSGDSIVTTICTVDTRNDAAAETMNTLRFASRAKNVALHVSKKSII
notes: Kip2 motor domain, S. cerevisiae, residues 100–503; Used in its apo state; The methods tell cleavage of the His tag only for Kip2-NMD and Kip2-NMD-ΔT; also called apo Kip2-MD; source: E. coli BL21 (DE3), purified (IMAC, SEC)
